Test results taken from the supplement of paper PMC5998384.

How the values were obtained:
HeLa Kyoto [1] = experiment: thermal stability score vs G1/S (z-score of summed log2 fold changes over temperatures); higher = more thermally stable than in G1/S
HeLa Kyoto [2] = experiment: solubility in G1/S (NP-40 vs SDS abundance) (log2 ratio); higher = more soluble; conditions: cell cycle stage: G1/S
HeLa Kyoto [3] = experiment: solubility change mitosis vs G1/S (difference of NP-40 vs SDS log2 ratios) (log2 ratio difference); higher = more soluble in mitosis
HeLa Kyoto [4] = experiment: melting temperature (median over replicates), in situ; higher = more thermally stable
[5] = cell cycle stage: early G1 (4.5 h after nocodazole release)
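Throughout, for melting temperature (median over replicates), in situ: HeLa Kyoto cells synchronized by double thymidine or nocodazole block, proteins quantified by TMT10plex mass spectrometry, three independent biological replicates.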
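Throughout, for solubility change mitosis vs G1/S (difference of NP-40 vs SDS log2 ratios): synchronized HeLa Kyoto cells (double thymidine block for G1/S, nocodazole release for mitosis), protein amounts in NP-40 versus SDS lysates quantified by mass spectrometry, three biological replicates.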
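Throughout, for solubility in G1/S (NP-40 vs SDS abundance): HeLa Kyoto cells arrested at G1/S by double thymidine block, proteins quantified by TMT10plex mass spectrometry in mild NP-40 versus SDS extracts, three biological replicates.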
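Throughout, for thermal stability score vs G1/S (z-score of summed log2 fold changes over temperatures): synchronized HeLa Kyoto cells, proteins quantified by TMT10plex mass spectrometry, three biological replicates, mitosis taken 0.5 h after nocodazole release, G1/S directly after double thymidine block.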

PPP2R5E, sequence (chain, as listed by the source): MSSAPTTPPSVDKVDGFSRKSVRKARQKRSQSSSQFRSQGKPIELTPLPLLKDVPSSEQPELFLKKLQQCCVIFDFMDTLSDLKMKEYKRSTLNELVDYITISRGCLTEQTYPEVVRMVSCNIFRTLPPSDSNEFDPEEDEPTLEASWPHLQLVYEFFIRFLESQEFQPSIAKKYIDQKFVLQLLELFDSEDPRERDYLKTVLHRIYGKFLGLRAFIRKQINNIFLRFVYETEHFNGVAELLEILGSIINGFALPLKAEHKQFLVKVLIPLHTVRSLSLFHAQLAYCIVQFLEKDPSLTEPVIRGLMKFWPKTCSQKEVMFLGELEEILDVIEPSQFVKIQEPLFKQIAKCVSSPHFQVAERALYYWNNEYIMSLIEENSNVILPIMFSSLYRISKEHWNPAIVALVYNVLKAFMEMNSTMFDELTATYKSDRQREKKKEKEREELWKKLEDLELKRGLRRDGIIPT

Question: Which results are given for PSME4?
Answer: thermal stability score (HeLa Kyoto [1]; [5]): -0.516; thermal stability score (HeLa Kyoto [1]; cell cycle stage: mitosis): -0.817; solubility in G1/S (log2) (HeLa Kyoto [2]): -0.391; solubility change mitosis (log2) (HeLa Kyoto [3]): -0.0943; melting temperature (HeLa Kyoto [4]; cell cycle stage: G1/S): 52.1 °C; melting temperature (HeLa Kyoto [4]; cell cycle stage: mitosis): 52.2 °C

Question: Which thermal stability score (HeLa Kyoto [1]; [5]) does the source give for “MGKGCKVVVCGLLSVGKTAILEQLLYGNHTIGMEDCETMEDVYMASVETDRGVKEQLHLYDTRGLQEGVELPKHYFSFADGFVLVYSVNNLESFQRVELLKKEIDKFKDKKEVAIVVLGNKIDLSEQRQVDAEVAQQWAKSEKVRLWEVTVTDRKTLIEPFTLLASKLSQPQSKSSFPLPGRKNKGNSNSEN [NKIRAS1]” here?
Answer: The thermal stability score was 2.91e-19.

Question: And the thermal stability score (HeLa Kyoto [1]; cell cycle stage: mitosis)?
Answer: The thermal stability score was -1.95e-17.

Question: What about the “solubility in G1/S (log2)” value (HeLa Kyoto [2]) of the same substance?
Answer: Its value is 0.0841.

Question: And the “solubility change mitosis (log2)” value (HeLa Kyoto [3])?
Answer: The value was -0.0109.

Question: And the melting temperature (HeLa Kyoto [4]; cell cycle stage: G1/S)?
Answer: Its melting temperature is 48.9 °C.

Question: And the melting temperature (HeLa Kyoto [4]; cell cycle stage: mitosis)?
Answer: Its melting temperature is 48.6 °C.

Question: For “MFRRPVLQVLRQFVRHESETTTSLVLERSLNRVHLLGRVGQDPVLRQVEGKNPVTIFSLATNEMWRSGDSEVYQLGDVSQKTTWHRISVFRPGLRDVAYQYVKKGSRIYLEGKIDYGEYMDKNNVRRQATTIIADNIIFLSDQTKEKE [SSBP1]”, which thermal stability score (HeLa Kyoto [1]; [5]) is on record?
Answer: Its thermal stability score is 0.62.

Question: What about the thermal stability score (HeLa Kyoto [1]; cell cycle stage: mitosis) of the same substance?
Answer: The thermal stability score was -1.51.

Question: And the “solubility in G1/S (log2)” value (HeLa Kyoto [2])?
Answer: Its value is 0.0755.

Question: What about the “solubility change mitosis (log2)” value (HeLa Kyoto [3]) of the same substance?
Answer: The value was 0.0149.

Question: What about the melting temperature (HeLa Kyoto [4]; cell cycle stage: G1/S) of the same substance?
Answer: Its melting temperature is 59.5 °C.

Question: What about the melting temperature (HeLa Kyoto [4]; cell cycle stage: mitosis) of the same substance?
Answer: The melting temperature was 59.6 °C.

Question: For “MEEAELVKGRLQAITDKRKIQEEISQKRLKIEEDKLKHQHLKKKALREKWLLDGISSGKEQEEMKKQNQQDQHQIQVLEQSILRLEKEIQDLEKAELQISTKEEAILKKLKSIERTTEDIIRSVKVEREERAEESIEDIYANIPDLPKSYIPSRLRKEINEEKEDDEQNRKALYAMEIKVEKDLKTGESTVLSSIPLPSDDFKGTGIKVYDDGQKSVYAVSSNHSAAYNGTDGLAPVEVEELLRQASERNSKSPTEYHEPVYANPFYRPTTPQRETVTPGPNFQERIKIKTNGLGIGVNESIHNMGNGLSEERGNNFNHISPIPPVPHPRSVIQQAEEKLHTPQKRLMTPWEESNVMQDKDAPSPKPRLSPRETIFGKSEHQNSSPTCQEDEEDVRYNIVHSLPPDINDTEPVTMIFMGYQQAEDSEEDKKFLTGYDGIIHAELVVIDDEEEEDEGEAEKPSYHPIAPHSQVYQPAKPTPLPRKRSEASPHENTNHKSPHKNSISLKEQEESLGSPVHHSPFDAQTTGDGTEDPSLTALRMRMAKLGKKVI [PALMD]”, which thermal stability score (HeLa Kyoto [1]; [5]) is on record?
Answer: The thermal stability score was -0.598.

Question: What about the thermal stability score (HeLa Kyoto [1]; cell cycle stage: mitosis) of the same substance?
Answer: The thermal stability score was 0.967.

Question: And the “solubility in G1/S (log2)” value (HeLa Kyoto [2])?
Answer: The value was 0.412.

Question: And the “solubility change mitosis (log2)” value (HeLa Kyoto [3])?
Answer: The value was 0.124.

Question: What about the melting temperature (HeLa Kyoto [4]; cell cycle stage: G1/S) of the same substance?
Answer: Its melting temperature is 53.2 °C.

Question: What about the melting temperature (HeLa Kyoto [4]; cell cycle stage: mitosis) of the same substance?
Answer: Its melting temperature is 53.1 °C.

Question: “MSAAKENPCRKFQANIFNKSKCQNCFKPRESHLLNDEDLTQAKPIYGGWLLLAPDGTDFDNPVHRSRKWQRRFFILYEHGLLRYALDEMPTTLPQGTINMNQCTDVVDGEGRTGQKFSLCILTPEKEHFIRAETKEIVSGWLEMLMVYPRTNKQNQKKKRKVEPPTPQEPGPAKVAVTSSSSSSSSSSSIPSAEKVPTTKSTLWQEEMRTKDQPDGSSLSPAQSPSQSQPPAASSLREPGLESKEEESAMSSDRMDCGRKVRVESGYFSLEKTKQDLKAEEQQLPPPLSPPSPSTPNHRRSQVIEKFEALDIEKAEHMETNAVGPSPSSDTRQGRSEKRAFPRKRDFTNEAPPAPLPDASASPLSPHRRAKSLDRRSTEPSVTPDLLNFKKGWLTKQYEDGQWKKHWFVLADQSLRYYRDSVAEEAADLDGEIDLSACYDVTEYPVQRNYGFQIHTKEGEFTLSAMTSGIRRNWIQTIMKHVHPTTAPDVTSSLPEEKNKSSCSFETCPRPTEKQEAELGEPDPEQKRSRARERRREGRSKTFDWAEFRPIQQALAQERVGGVGPADTHEPLRPEAEPGELERERARRREERRKRFGMLDATDGPGTEDAALRMEVDRSPGLPMSDLKTHNVHVEIEQRWHQVETTPLREEKQVPIAPVHLSSEDGGDRLSTHELTSLLEKELEQSQKEASDLLEQNRLLQDQLRVALGREQSAREGYVLQATCERGFAAMEETHQKKIEDLQRQHQRELEKLREEKDRLLAEETAATISAIEAMKNAHREEMERELEKSQRSQISSVNSDVEALRRQYLEELQSVQRELEVLSEQYSQKCLENAHLAQALEAERQALRQCQRENQELNAHNQELNNRLAAEITRLRTLLTGDGGGEATGSPLAQGKDAYELEVLLRVKESEIQYLKQEISSLKDELQTALRDKKYASDKYKDIYTELSIAKAKADCDISRLKEQLKAATEALGEKSPDSATVSGYDIMKSKSNPDFLKKDRSCVTRQLRNIRSKSVIEQVSWDT [MPRIP]” was tested. Which thermal stability score (HeLa Kyoto [1]; [5]) did it give?
Answer: The thermal stability score was -0.81.

Question: And the thermal stability score (HeLa Kyoto [1]; cell cycle stage: mitosis)?
Answer: Its thermal stability score is -1.05.

Question: And the “solubility in G1/S (log2)” value (HeLa Kyoto [2])?
Answer: The value was -1.2.

Question: And the “solubility change mitosis (log2)” value (HeLa Kyoto [3])?
Answer: The value was 0.41.

Question: And the melting temperature (HeLa Kyoto [4]; cell cycle stage: G1/S)?
Answer: The melting temperature was 51.9 °C.

Question: And the melting temperature (HeLa Kyoto [4]; cell cycle stage: mitosis)?
Answer: Its melting temperature is 52.6 °C.

Question: How did the thermal stability score (HeLa Kyoto [1]; [5]) turn out when PPP2R5E was run?
Answer: Its thermal stability score is 0.446.

Question: What about the thermal stability score (HeLa Kyoto [1]; cell cycle stage: mitosis) of the same substance?
Answer: Its thermal stability score is 0.409.

Question: What about the “solubility in G1/S (log2)” value (HeLa Kyoto [2]) of the same substance?
Answer: The value was -0.065.

Question: And the “solubility change mitosis (log2)” value (HeLa Kyoto [3])?
Answer: Its value is -0.171.

Question: What about the melting temperature (HeLa Kyoto [4]; cell cycle stage: G1/S) of the same substance?
Answer: Its melting temperature is 49.9 °C.

Question: What about the melting temperature (HeLa Kyoto [4]; cell cycle stage: mitosis) of the same substance?
Answer: Its melting temperature is 49.7 °C.

Question: DNAJA1 was tested. Which thermal stability score (HeLa Kyoto [1]; [5]) did it give?
Answer: The thermal stability score was -1.37.

Question: What about the thermal stability score (HeLa Kyoto [1]; cell cycle stage: mitosis) of the same substance?
Answer: The thermal stability score was -1.92.

Question: What about the “solubility in G1/S (log2)” value (HeLa Kyoto [2]) of the same substance?
Answer: The value was -0.016.

Question: What about the “solubility change mitosis (log2)” value (HeLa Kyoto [3]) of the same substance?
Answer: Its value is 0.000386.

Question: And the melting temperature (HeLa Kyoto [4]; cell cycle stage: G1/S)?
Answer: The melting temperature was 51.8 °C.

Question: What about the melting temperature (HeLa Kyoto [4]; cell cycle stage: mitosis) of the same substance?
Answer: The melting temperature was 52.1 °C.
